Some results are limits rather than exact numbers.

The target of assay [1] is T1, CD47 on the cell surface (A431, Raji, SKBR-3, NCI-H441, NK92MI-CD16a cells) (human, UniProt Q08722 19-323). Kind of assay: cell-based or functional assay.
Assay [2] has as its target T2, CD47-His (12283-H08H-200, Sino Biological) (human, UniProt Q08722 19-139).
T2 construct: Bought protein coated on ELISA plates; also called CD47 antigen; human CD47 (protein level); not shown: His tag
In words: ELISA on coated CD47-His. A general note: An ELISA detects its analyte on a solid surface through an enzyme-linked reagent.

In assay [3] the target is T1, CD47 on the cell surface (A431, Raji, …). In words: flow cytometry on NCI-H441 cells.
The target is the same in assay [4]. Kind of assay: flow cytometry on A431 cells (no CD20).
Assay [5] shares this target. In words: flow cytometry on Raji cells. In general terms: In flow cytometry, cells or beads pass a laser one at a time.
For assay [6] the target is unchanged. Kind of assay: flow cytometry on A431 cells.
Assay [7] shares this target. In words: flow cytometry on SKBR-3 cells.
Assay [8] has the same target. Kind of assay: flow cytometry on IFN-γ-stimulated NCI-H441 cells.

B1: Anti-EGFR-Fc1-D1-Fc2 (bispecific antibody, human IgG1, kappa)
heavy: not shown
light: EIVLTQSPDFQSVTPKEKVTITCRASQSIGTNIHWYQQKPDQSPKLLIKYASESISGIPSRFSGSGSGTDFTLTINSLEAEDAATYYCQQNNEWPTSFGQGTKLEIKRTVAAPSVFIFPPSDEQLKSGTASVVCLLNNFYPREAKVQWKVDNALQSGNSQESVTEQDSKDSTYSLSSTLTLSKADYEKHKVYACEVTHQGLSSPVTKSFNRGEC
chain: not shown
notes: Knobs-into-holes heterodimer; left arm is the JMT101 half antibody; also called Anti-EGFR-Fc1-D1-Fe2
The term EC50 denotes the concentration needed to bring the measured effect to its halfway point. For B1, in assay [1], the “toxic side effects caused by NK cells (ADCC on NK92MI-CD16a cells), reduction against the D1^m proteins” value was not below 1000 fold. For the same molecule, the EC50 in assay [2] is 0.0939 µg/mL.

B2: Anti-EGFR-Fc1-D1^m-D2-Fc2 (bispecific antibody, human IgG1, kappa)
heavy: not shown
light: EIVLTQSPDFQSVTPKEKVTITCRASQSIGTNIHWYQQKPDQSPKLLIKYASESISGIPSRFSGSGSGTDFTLTINSLEAEDAATYYCQQNNEWPTSFGQGTKLEIKRTVAAPSVFIFPPSDEQLKSGTASVVCLLNNFYPREAKVQWKVDNALQSGNSQESVTEQDSKDSTYSLSSTLTLSKADYEKHKVYACEVTHQGLSSPVTKSFNRGEC
chain: not shown
notes: Knobs-into-holes heterodimer
Take B2: in assay [2], the binding result is listed as “binds”.

B3: Anti-EGFR-Fc1-D1-D2-D3-Fc2 (bispecific antibody, human IgG1, kappa)
heavy: not shown
light: EIVLTQSPDFQSVTPKEKVTITCRASQSIGTNIHWYQQKPDQSPKLLIKYASESISGIPSRFSGSGSGTDFTLTINSLEAEDAATYYCQQNNEWPTSFGQGTKLEIKRTVAAPSVFIFPPSDEQLKSGTASVVCLLNNFYPREAKVQWKVDNALQSGNSQESVTEQDSKDSTYSLSSTLTLSKADYEKHKVYACEVTHQGLSSPVTKSFNRGEC
chain: not shown
For B3, in assay [1], the “toxic side effects caused by NK cells (ADCC on NK92MI-CD16a cells), reduction against the D1^m proteins” value was not below 1000 fold.

B4: Anti-EGFR-Fc1-D1^m-Fc2 (bispecific antibody, human IgG1, kappa)
heavy: not shown
light: EIVLTQSPDFQSVTPKEKVTITCRASQSIGTNIHWYQQKPDQSPKLLIKYASESISGIPSRFSGSGSGTDFTLTINSLEAEDAATYYCQQNNEWPTSFGQGTKLEIKRTVAAPSVFIFPPSDEQLKSGTASVVCLLNNFYPREAKVQWKVDNALQSGNSQESVTEQDSKDSTYSLSSTLTLSKADYEKHKVYACEVTHQGLSSPVTKSFNRGEC
chain: not shown
notes: Knobs-into-holes heterodimer
B4: in assay [2], the binding result is “binds”.

B5: Anti-EGFR-Fc1-D1-D2-Fc2 (bispecific antibody, human IgG1, kappa)
heavy: not shown
light: EIVLTQSPDFQSVTPKEKVTITCRASQSIGTNIHWYQQKPDQSPKLLIKYASESISGIPSRFSGSGSGTDFTLTINSLEAEDAATYYCQQNNEWPTSFGQGTKLEIKRTVAAPSVFIFPPSDEQLKSGTASVVCLLNNFYPREAKVQWKVDNALQSGNSQESVTEQDSKDSTYSLSSTLTLSKADYEKHKVYACEVTHQGLSSPVTKSFNRGEC
chain: not shown
Take B5: in assay [1], the “toxic side effects caused by NK cells (ADCC on NK92MI-CD16a cells), reduction against the D1^m proteins” value was not below 1000 fold.

B6: Anti-CD20 mAb (Ofatumumab) (antibody, human IgG1, kappa)
heavy: not shown
light: not shown
notes: also called Anti-CD20 (Ofatumumab)
For B6, the binding result in assay [2] and in assay [4] was “no binding” in each case. Further, the “Maximum average fluorescence intensity” value in assay [3] amounted to 3500.

B7: Anti-EGFR mAb (JMT101) (antibody, human IgG1, kappa, V domains shown)
VH: QVQLQESGPGLVKPSETLSLTCTVSGFSLSNYDVHWVRQAPGKGLEWLGVIWSGGNTDYNTPFTSRLTISVDTSKNQFSLKLSSVTAADTAVYYCARALDYYDYEFAYWGQGTLVTVSS
VL: EIVLTQSPDFQSVTPKEKVTITCRASQSIGTNIHWYQQKPDQSPKLLIKYASESISGIPSRFSGSGSGTDFTLTINSLEAEDAATYYCQQNNEWPTSFGQGTKLEIKR
notes: Humanized anti-EGFR monoclonal antibody
Consider B7, for which the binding result in assay [2] was “no binding”.

B8: Obi-Fc1-D1-Fc2 (bispecific antibody)
heavy: not shown
light: DIVMTQTPLSLPVTPGEPASISCRSSKSLLHSNGITYLYWYLQKPGQSPQLLIYQMSNLVSGVPDRFSGSGSGTDFTLKISRVEAEDVGVYYCAQNLELPYTFGGGTKVEIKRTVAAPSVFIFPPSDEQLKSGTASVVCLLNNFYPREAKVQWKVDNALQSGNSQESVTEQDSKDSTYSLSSTLTLSKADYEKHKVYACEVTHQGLSSPVTKSFNRGEC
chain: not shown
For the molecule B8, in assay [1], the “toxic side effects caused by NK cells (ADCC on NK92MI-CD16a cells), reduction against the D1^m proteins” value is not below 1000 fold.

B9: Anti-CD20 mAb (Obinutuzumab) (antibody, human IgG1, kappa)
heavy: not shown
light: DIVMTQTPLSLPVTPGEPASISCRSSKSLLHSNGITYLYWYLQKPGQSPQLLIYQMSNLVSGVPDRFSGSGSGTDFTLKISRVEAEDVGVYYCAQNLELPYTFGGGTKVEIKRTVAAPSVFIFPPSDEQLKSGTASVVCLLNNFYPREAKVQWKVDNALQSGNSQESVTEQDSKDSTYSLSSTLTLSKADYEKHKVYACEVTHQGLSSPVTKSFNRGEC
notes: also called Anti-CD20 (Obinutuzumab)
Consider B9, for which, in assay [4], the binding result was “no binding”.

B10: Obi-Fc1-D1-D2-D3-Fc2 (bispecific antibody)
heavy: not shown
light: DIVMTQTPLSLPVTPGEPASISCRSSKSLLHSNGITYLYWYLQKPGQSPQLLIYQMSNLVSGVPDRFSGSGSGTDFTLKISRVEAEDVGVYYCAQNLELPYTFGGGTKVEIKRTVAAPSVFIFPPSDEQLKSGTASVVCLLNNFYPREAKVQWKVDNALQSGNSQESVTEQDSKDSTYSLSSTLTLSKADYEKHKVYACEVTHQGLSSPVTKSFNRGEC
chain: not shown
Take B10: the “toxic side effects caused by NK cells (ADCC on NK92MI-CD16a cells), reduction against the D1^m proteins” value in assay [1] is not below 1000 fold.

B11: Obi-Fc1-D1-D2-Fc2 (bispecific antibody)
heavy: not shown
light: DIVMTQTPLSLPVTPGEPASISCRSSKSLLHSNGITYLYWYLQKPGQSPQLLIYQMSNLVSGVPDRFSGSGSGTDFTLKISRVEAEDVGVYYCAQNLELPYTFGGGTKVEIKRTVAAPSVFIFPPSDEQLKSGTASVVCLLNNFYPREAKVQWKVDNALQSGNSQESVTEQDSKDSTYSLSSTLTLSKADYEKHKVYACEVTHQGLSSPVTKSFNRGEC
chain: not shown
Consider B11, for which the “toxic side effects caused by NK cells (ADCC on NK92MI-CD16a cells), reduction against the D1^m proteins” value in assay [1] is not below 1000 fold.

B12: Anti-CD47 mAb (Hu5F9-G4) (antibody, human IgG4 S228P, kappa)
heavy: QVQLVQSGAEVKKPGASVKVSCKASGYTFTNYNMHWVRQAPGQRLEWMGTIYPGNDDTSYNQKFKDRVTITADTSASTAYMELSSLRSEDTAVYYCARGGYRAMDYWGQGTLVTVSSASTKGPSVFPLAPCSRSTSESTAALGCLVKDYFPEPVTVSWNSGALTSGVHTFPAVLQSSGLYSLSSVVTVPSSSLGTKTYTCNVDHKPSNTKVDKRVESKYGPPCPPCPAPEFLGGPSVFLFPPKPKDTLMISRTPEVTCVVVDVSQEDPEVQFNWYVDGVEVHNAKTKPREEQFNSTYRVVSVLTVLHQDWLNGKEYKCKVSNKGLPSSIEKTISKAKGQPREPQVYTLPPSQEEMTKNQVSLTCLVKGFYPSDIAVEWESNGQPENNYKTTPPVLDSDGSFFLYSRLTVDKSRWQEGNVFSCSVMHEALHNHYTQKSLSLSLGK
light: DIVMTQSPLSLPVTPGEPASISCRSSQSIVYSNGNTYLGWYLQKPGQSPQLLIYKVSNRFSGVPDRFSGSGSGTDFTLKISRVEAEDVGVYYCFQGSHVPYTFGQGTKLEIKRTVAAPSVFIFPPSDEQLKSGTASVVCLLNNFYPREAKVQWKVDNALQSGNSQESVTEQDSKDSTYSLSSTLTLSKADYEKHKVYACEVTHQGLSSPVTKSFNRGEC
notes: also called anti-CD47 antibody; Hu5F9-64
For the molecule B12, the EC50 came out at 0.00544 µg/mL in assay [2]; 258 pM in assay [5]; 865 pM in assay [6]; 456 pM in assay [7]; 286 pM in assay [3]; 386 pM in assay [8]. Further, the “Maximum average fluorescence intensity” value in assay [3] amounted to 120000.

These data come from patent publication US20200157223A1 (SHANGHAI JMT BIO TECHNOLOGY, published 2020).
